This series deals with O=CC(O)COP(=O)(O)O. The series is described as follows: Michaelis-Menten kinetics of purified enzyme (Km), coupled alpha-GDH/NADH assay. The class given is biochemical, Giardia duodenalis.

As to “Giardia lamblia triosephosphate isomerase (GlTIM Tmut) (Giardia duodenalis; C202A/C222A/C228A)”, the Km came out at 1200 ± 90 µM and the specificity constant (kcat/Km) is 1.92e+06 M⁻¹ s⁻¹.

The values are drawn from publication PMC6586891, “On the molecular and cellular effects of omeprazole to further support its effectiveness as an antigiardial drug” (Scientific Reports, 2019).
